Experimental data reported in PMC9676403, “Crystal structure of the collagen prolyl 4-hydroxylase (C-P4H) catalytic domain complexed with PDI: Toward a model of the C-P4H α2β2 tetramer” (The Journal of Biological Chemistry, 2022).

B1: α-subunit of human C-P4H-II lacking the N-terminal dimerization domain, construct C-P4H-II-Δ140 (domain or fragment, UniProt O15460-1 141-535, looked up)
chain: DTYRLDPGTISRGELPGTKYQAMLSVDDCFGMGRSAYNEGDYYHTVLWMEQVLKQLDAGEEATTTKSQVLDYLSYAVFQLGDLHRALELTRRLLSLDPSHERAGGNLRYFEQLLEEEREKTLTNQTEAELATPEGIYERPVDYLPERDVYESLCRGEGVKLTPRRQKRLFCRYHHGNRAPQLLIAPFKEEDEWDSPHIVRYYDVMSDEEIERIKEIAKPKLARATVRDPKTGVLTVASYRVSKSSWLEEDDDPVVARVNRRMQHITGLTVKTAELLQVANYGVGGQYEPHFDFSRNDERDTFKHLGTGNRVATFLNYMSDVEAGGATVFPDLGAAIWPKKGTAVFWYNLLRSGEGDYRTRHAACPVLVGCKWVSNKWFHERGQEFLRPCGSTEVD
notes: collagen prolyl 4-hydroxylase α(II) subunit, human, isoform-IIb splice variant (exon 12b), first 140 residues deleted, starts at Asp141; holds the PSB and CAT domains; codon-optimized gene; also called PSB and CAT; Hs-α(II) from D141; source: E. coli K12, polycistronic CyDisCo plasmid, coexpressed with β/PDI and yeast Erv1; purified (Talon IMAC, HiTrap Q, Superdex 200); not shown: His6, …
B2: α-subunit of human C-P4H-II truncated to the catalytic (CAT) domain, construct C-P4H-II-Δ281 (domain or fragment, UniProt O15460-1 282-535, looked up)
chain: DYLPERDVYESLCRGEGVKLTPRRQKRLFCRYHHGNRAPQLLIAPFKEEDEWDSPHIVRYYDVMSDEEIERIKEIAKPKLARATVRDPKTGVLTVASYRVSKSSWLEEDDDPVVARVNRRMQHITGLTVKTAELLQVANYGVGGQYEPHFDFSRNDERDTFKHLGTGNRVATFLNYMSDVEAGGATVFPDLGAAIWPKKGTAVFWYNLLRSGEGDYRTRHAACPVLVGCKWVSNKWFHERGQEFLRPCGSTEVD
notes: residues 534-535 are named as the C-terminal residues; codon-optimized gene; Linked to PDI in the crystal by intersubunit disulfide bridges (Cys311-Cys397, Cys529-Cys53); also called Hs-α(II) from D282; source: E. coli K12, polycistronic CyDisCo plasmid, coexpressed with β/PDI and yeast Erv1; purified (Talon IMAC, HiTrap Q, Superdex 200)
B3: protein disulfide isomerase, the β-subunit of C-P4H (enzyme)
chain: not shown
notes: protein disulfide isomerase, human, called the intact or complete β/PDI subunit, without a tag; codon-optimized gene; the crystal model starts at Glu21; Made in the E. coli cytoplasm, so probably without the signal peptide (my surmise); also called PDI; β/PDI subunit; source: E. coli K12, polycistronic CyDisCo plasmid, coexpressed with the α-subunit and yeast Erv1; co-purified with the His-tagged …
B4: α-subunit of mature human C-P4H-II (enzyme, UniProt O15460-1 22-535, looked up)
chain: EFFTSIGHMTDLIYAEKELVQSLKEYILVEEAKLSKIKSWANKMEALTSKSAADAEGYLAHPVNAYKLVKRLNTDWPALEDLVLQDSAAGFIANLSVQRQFFPTDEDEIGAAKALMRLQDTYRLDPGTISRGELPGTKYQAMLSVDDCFGMGRSAYNEGDYYHTVLWMEQVLKQLDAGEEATTTKSQVLDYLSYAVFQLGDLHRALELTRRLLSLDPSHERAGGNLRYFEQLLEEEREKTLTNQTEAELATPEGIYERPVDYLPERDVYESLCRGEGVKLTPRRQKRLFCRYHHGNRAPQLLIAPFKEEDEWDSPHIVRYYDVMSDEEIERIKEIAKPKLARATVRDPKTGVLTVASYRVSKSSWLEEDDDPVVARVNRRMQHITGLTVKTAELLQVANYGVGGQYEPHFDFSRNDERDTFKHLGTGNRVATFLNYMSDVEAGGATVFPDLGAAIWPKKGTAVFWYNLLRSGEGDYRTRHAACPVLVGCKWVSNKWFHERGQEFLRPCGSTEVD
notes: collagen prolyl 4-hydroxylase α(II) subunit, human, isoform-IIb splice variant (exon 12b); the complex is called mature C-P4H-II; codon-optimized gene; also called α(II); Hs-α(II); source: E. coli K12, polycistronic CyDisCo plasmid, coexpressed with β/PDI and yeast Erv1; purified (Talon IMAC, HiTrap Q, Superdex 200); not shown: His6, N-terminal, kept

Tests used:
[1] = molecular target: B3; test: co-purification; His6-tagged α-subunit coexpressed with untagged β/PDI in E. coli (CyDisCo); Talon IMAC from the lysate, HiTrap Q, Superdex 200, 4 °C, Tris pH 7.8; subunits found in the purified sample by SDS-PAGE and MS; details: partners not purified
[2] = molecular target: B3; test: SEC-MALS; purified, frozen-thawed co-expressed complex on Superdex 200 Increase 10/300 GL in SEC buffer (50 mM Tris, pH 7.8, 50 mM NaCl, 100 mM glycine); details: both partners purified
[3] = molecular target: B4; test: co-purification; His6-tagged α-subunit coexpressed with untagged β/PDI in E. coli (CyDisCo); Talon IMAC from the lysate, HiTrap Q, Superdex 200, 4 °C, Tris pH 7.8; subunits found in the purified sample by SDS-PAGE and MS; details: partners not purified
[4] = molecular target: the molecule itself; test: SEC-MALS; purified, frozen-thawed co-expressed complex on Superdex 200 Increase 10/300 GL in SEC buffer (50 mM Tris, pH 7.8, 50 mM NaCl, 100 mM glycine)

Binder: B1
binding result [1]: binds

Binder: B2
binding result [2]: binds

Binder: B3
binding result [3]: binds

Binder: B4
binding result [4]: binds
